Data as given in the nanobody polyreactivity screen of Harvey et al. (2022).

Assay: yeast display, Sf9 membrane polyspecificity reagent, FACS + sequencing; frameworks hold sequencing errors
Summary of the method: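 Polyreactivity labels are assigned by the sorting gate from which each nanobody was recovered. The gates were low and high (top ~1%), set on anti-HA fluorescence for expression and streptavidin fluorescence for reagent binding. Before sorting, galactose-induced (36–48 hours) yeast display cells were stained for 1 hour at 4 °C with 10% biotinylated, detergent-solubilized Sf9 membrane reagent.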

Sequence | polyreactivity (PSR sort gate)
QVQLVESGGGLVQAGGSLRLSCAASGSTFKSYAMGWYRQAPGKERELVAAITRGGSTNYADSVKGRFTISRDNAKNTVYLQMNSLKPEDTAVYYCAKTYRYRTMDYWGQGTQVTVSS | low polyreactivity
QVQLVESGGGLVQAGGSLRLSCAASGRIFTYYAMRWYRQAPGKERELVAGITGSGASTYYADSVKGRFTISRDNAKNTVYLQMNSLKPEDTAVYYCNAPYVIRPFRGRYDYWGQGTLVTVSS | high polyreactivity
QVQLVESGGGLVQAGGSLRLSCAASGSTFRRNAMGWYRQAPGKERELVAAIDKSGGTTYYADSVKGRFTISRDNAKNTVYLQMNSLKPEDTAVYYCAVRSYLSSRGSHDYWGQGTQVTVSS | low polyreactivity
QVQLVESGGGLVQAGGSLRLSCAASGRTFYRYAMGWYRQAPGKERELVASITRRGGNTYYADSVKGLFTISRDNAKNTVYLQMNSLKPEDTAVYYCAAQSLHPGNWGQGTQVTVSS | high polyreactivity
QVQLVESGGGLVQAGGSLRLSCAASGRTFRQYAMGWYRQSPGKERELVATISGGGGNTYYADSVKGSFTISRDNAKNTVYLQMNSLKQEDTAVYYCAARRRDRPVRGYDYWGQGTQVTVSS | high polyreactivity
QVQLVESGGGLVQAGGSLRLSCAASGITFSPSAMGWCRQAPGKERELVAAITSGGSTNYADSVKGRFTISRDNAKNTVYLQMNSLKPEDTAVYYCAAGRWPAPWYTRNYWGQGTQVTVSS | low polyreactivity
QVQLVESGGGLVQAGGSLRLSCAASGLTFLRYAMGWYRQAPGKERELVATISASDGDTYYADSVKGRFTISGDNAKNTVYLQMNSLKPEDTAVYYCAADDIYKYYQYYAFPYYRYDDWGQGTEVTVSS | low polyreactivity
QVQLVESGGGLVQAGGSLRVSCAASGSTFDPNAMGWYRQATGKERELVADIDSGGSTYYADSVKGRFTISRDNAKNTVYLQMNSMKPEDTAVYYCATKQPTWVPRVIISYTKFDYWGQGTQVTVSS | low polyreactivity
QVQLVESGGGLVQAGGSLRLSCAASGITFGSYAMGWYRQAPGKERELVATISKSGGSTYYADSVKGRFTISRDNEKNTVYLQMNSLKPEDTAVYYCARRYVAKRMDFWGQGTQVTVSS | high polyreactivity
QVQLVESGGGLVQAGGSLRLSCAASGITFSSYTMGGYRQAPGKERELVARINSGGTTNYADSVKGRFTISRDNAKNTVYLQMNSLKPEDTAVFYCAAEWVSWRWAHKFDYWGQGTQVTVSS | high polyreactivity
QVQLVESGGGLVQAGGSLRLSCAASGSTFVNNAMGWYRQAPGKERELVASITVGGSTYYADSVKGRFTISRDNAKNTVYLQMNSLKPEDTAVYYCNVQYSYYASDYDYWGQGTQVTVSS | low polyreactivity
QVQLVESGGGLVQAGGSLRLICAASGSNFGSNAMGWYRQAPGKETEFVAVITWRVGVTYYADSVKGRFTISRDNAKNTVYLQMNSLKPEDTAVYYCNVDWKVYGAPDYRIAWKYDYWGQGTQVTVSS | low polyreactivity
QVQLVDSGGGLVQAGGSLRLSCAASGSILAGNVMGWYRQAPGKERELVASITFRGSRTYYADSVKGRFTISRDNAKNTVYLQMNSLKPEDTAVYYCNADVWASGSRGEGYWGQGTQVTVSS | low polyreactivity
QVQLVESGGGLVQAGGSLRLSCAASGSTFGRNTMGWYRPAPGKERELVAAITAGDTTTYADSVKGRFTISRDNAKNTDYLQMKSLKREDTAVYYCAVDPVRGRDYSWMDYWGQGSQVTVSS | low polyreactivity
QVQLVESGGGLVQAGGSLRLSCAASGSIFNGYAMGWYRQAPGKERELVATITRGGGSTYYADSVKGRFTISRDNAKNTVYLQMNSLKPEDTAVYYCAKTYFYGVRRFNYWGQGTQVTVSS | high polyreactivity
QDQLEESGGGLVQAGGSLRLSCAASGLTFIQYALGWYRQAPGKERELVAAINSGASTRYADSEKGRFTISRDNAMNTVYLQMNSLKPEDTAVYYCNARLRRYTNRYYKYYYWGQGTLVTVSS | high polyreactivity
QVQRVESGGGLVQAGGSLRLSCAASGYILPRYAMGWYIQAPGKERELVAAITSGGITSYADSVKGRFTISRDNAKNTVYLQMNSLKPEDTAVYYCAADWYVIYDYWGQGTQVTVSS | low polyreactivity
